Assay results taken from paper PMC2148128.

Experiments:
[1] = biological target: Crn1p (coronin1p), full-length recombinant (amino acids 1–651) (S. cerevisiae) (UniProt Q06440); experiment: co-sedimentation
[2] = biological target: taxol-stabilized bovine brain microtubules (tubulin) (bovine) (UniProt Q6B856); experiment: co-sedimentation

| Kd [1] [µM] | Kd [2] [µM] | percent of Crn1p bound at 2 μM microtubules [2] [%] | percent of Crn1p bound at 10 μM microtubules [2] [%] | Molecule |
| --- | --- | --- | --- | --- |
| 2 | – | – | – | taxol-stabilized bovine brain microtubules (tubulin) (from UniProt Q6B856 1-445) (complex) |
| – | 15 to 20 | 20 | 40 | Crn1p (coronin1p), full-length recombinant (amino acids 1–651) (natural protein) MSGKFVRASKYRHVFGQAAKKELQYEKLKVTNNAWDSNLLKTNGKFIAVNWNASGGGAFAVIPIEEVGKAPDQVPLFRGHTAQVLDTDFDPFNDHRIASGSDDSKIGIWDIPENYKFHDHVDEDGEPIDIKPVKFLTGHARKVGHVLYHPVAENVLASSSGDYTVKLWNVETGKDMITLKHPDMVTSMSFSYDGNYLATVARDKKLRVWNIREEKIVSEGPAHTGAKNQRVVWLGNSDRLATTGFSKLSDRQIGIWDAFNIEKGDLGGFYTVDQSSGILMPFYDEGNKILYLVGKGDGNIRYYEFQNDELFELSEFQSTEAQRGFAVAPKRMVNVKENEVLKGFKTVVDQRIEPVSFFVPRRSEEFQEDIYPDAPSNKPALTAEEWFSGKSVEGPILVSMRSIYDGSAPSFHEAKRPQQPTTQETALEEKKEQPKVEKPISESEKEVKQEAPKSPSPLKSASSSSTINHVLKEDNSINKLLKKSSDIDQVNNAEDPSRDTSGWEEADDEPAPIKIETPVTPTETKKDRTPKVEPSKELKPEPVSIATDRKQEQSLPQEEKSSEKTKSPEQEKSATPPSSITAAKTAITASSKEEPSAARTSPKSLGLKKSVEKLSTLVLQLEDVVDKLTKANLDKDERLLKLEQKIGELSK |
